Assay results: the supplement of paper PMC7125110
± gives the standard error. For some assays here: Fewer inactive variants are shown than the library holds.

B1: glmS ribozyme (parent)
chain: AUAAAAGCGCCAGAACUACAGAAAUGUAGUUGACGAGGAGGAGGUUUAUCGAAUUUUCGGCGGAUGCCUCCAAA

Columns and labels:
Conditions in all cases: with glucosamine-6-phosphate
[1] = variants of: B1; test: kcat; higher = faster cleavage; RNA array
Procedure, shortened: (§1)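 A hybridised Cy3 probe tracked barcoded ribozyme variants, transcribed in situ by E. coli RNA polymerase on sequenced MiSeq chips, at 37 °C. The variants received 40 μM to 10 mM glucosamine-6-phosphate in HEPES/KCl/Mg(OAc)2 buffer. kobs came from decay fits and kcat and KM from weighted Michaelis–Menten fits.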

[2] = variants of: B1; test: KM; higher = weaker cofactor use; RNA array
Procedure, shortened: as §1

[3] = variants of: B1; test: self-cleavage kobs at 160 uM GlcN6P; higher = faster cleavage; RNA array
Procedure, shortened: as §1

[4] = variants of: B1; test: self-cleavage kobs at 640 uM GlcN6P; higher = faster cleavage; RNA array
Procedure, shortened: as §1

[5] = variants of: B1; test: self-cleavage kobs at 2500 uM GlcN6P; higher = faster cleavage; RNA array
Procedure, shortened: as §1

[6] = variants of: B1; test: self-cleavage kobs at 10000 uM GlcN6P; higher = faster cleavage; RNA array
Procedure, shortened: as §1

[7] = variants of: B1; test: self-cleavage kobs at 40 uM GlcN6P; higher = faster cleavage; RNA array
Procedure, shortened: as §1

Row | Variant | kcat [1] | KM [2] | self-cleavage kobs at 160 uM GlcN6P [3] | self-cleavage kobs at 640 uM GlcN6P [4] | self-cleavage kobs at 2500 uM GlcN6P [5] | self-cleavage kobs at 10000 uM GlcN6P [6] | self-cleavage kobs at 40 uM GlcN6P [7]
1 | C16A U31G C70U | 0.00025 ± 1.3e-05 s⁻¹ | 0.351 ± 0.054 mM | 7.99e-05 ± 2.2e-05 s⁻¹ | 0.000157 ± 3e-05 s⁻¹ | 0.000242 ± 6.1e-05 s⁻¹ | 0.000235 ± 4.9e-05 s⁻¹ | 
2 | A15G G32A C70G | 9.72e-05 ± 1.2e-05 s⁻¹ |  | 0.000115 ± 3.5e-05 s⁻¹ | 0.000107 ± 2.6e-05 s⁻¹ | 7.81e-05 ± 3e-05 s⁻¹ | 9.41e-05 ± 1.1e-05 s⁻¹ | 
3 | A6U G37U | < 1e-05 s⁻¹ |  | < 1e-05 s⁻¹ |  | < 1e-05 s⁻¹ |  | 
4 | C50G C70U | 0.000103 ± 2.1e-05 s⁻¹ |  | 0.000129 ± 1.5e-05 s⁻¹ |  | 0.000149 ± 1.4e-05 s⁻¹ | 7.8e-05 ± 8.6e-06 s⁻¹ | 8.81e-05 ± 1e-05 s⁻¹
5 | U31C A48U | 6.21e-05 ± 6.5e-06 s⁻¹ | 2.78 ± 1.1 mM | < 1e-05 s⁻¹ |  |  | 4.85e-05 ± 9.7e-06 s⁻¹ | < 1e-05 s⁻¹
6 | A15U G66C | 0.000125 ± 1.5e-05 s⁻¹ | 7.9 ± 1.9 mM |  |  | 3.02e-05 ± 1.1e-05 s⁻¹ | 6.96e-05 ± 1.2e-05 s⁻¹ | 
7 | C61U | 1.4e-05 ± 3.1e-06 s⁻¹ |  |  |  | 2.23e-05 ± 2.6e-06 s⁻¹ | 1.19e-05 ± 1.4e-06 s⁻¹ | < 1e-05 s⁻¹
8 | A6C U55C | 0.000127 ± 4e-05 s⁻¹ |  |  |  | 3.24e-05 ± 1.2e-05 s⁻¹ | 7.95e-05 ± 1.6e-05 s⁻¹ | 
9 | C16G A39U | 0.00424 ± 0.00089 s⁻¹ | 3.09 ± 0.88 mM | 0.000164 ± 2.2e-05 s⁻¹ | 0.000895 ± 0.00011 s⁻¹ | 0.00198 ± 0.00025 s⁻¹ | 0.00316 ± 0.00031 s⁻¹ | 6.4e-05 ± 7.3e-06 s⁻¹
10 | G29U | 0.00859 ± 0.00066 s⁻¹ | 1.57 ± 0.14 mM | 0.000677 ± 5.2e-05 s⁻¹ | 0.00232 ± 8.4e-05 s⁻¹ | 0.01 ± 0.0028 s⁻¹ | 0.00757 ± 0.00024 s⁻¹ | 0.000218 ± 3.7e-06 s⁻¹
11 | A15G U49A | 1.35e-05 ± 1.2e-06 s⁻¹ | 1.23 ± 0.55 mM | < 1e-05 s⁻¹ |  |  |  | 
12 | A6G G29U | 8.41e-05 ± 9.3e-06 s⁻¹ | 3.85 ± 1.1 mM |  |  | 3.54e-05 ± 1e-05 s⁻¹ | 6.03e-05 ± 9e-06 s⁻¹ | 
13 | A14C U57A | 0.00019 ± 1.7e-05 s⁻¹ |  |  |  | 3.61e-05 ± 1.6e-05 s⁻¹ | 9.25e-05 ± 2.2e-05 s⁻¹ | 
14 | A6U G29U | 5.83e-05 ± 3.7e-06 s⁻¹ | 5.56 ± 0.69 mM |  |  |  | 3.74e-05 ± 1.7e-05 s⁻¹ | < 1e-05 s⁻¹
15 | G21A C58G U69G C71U | 4e-05 ± 1e-05 s⁻¹ |  | 5.48e-05 ± 1.6e-05 s⁻¹ | 4.19e-05 ± 1.7e-05 s⁻¹ | 3.42e-05 ± 1.6e-05 s⁻¹ |  | 
16 | A12C U31C | 0.00286 ± 0.00052 s⁻¹ | 5.11 ± 1.3 mM | 8.05e-05 ± 1.6e-05 s⁻¹ | 0.000348 ± 6.1e-05 s⁻¹ | 0.000876 ± 0.00014 s⁻¹ | 0.00195 ± 0.0003 s⁻¹ | 3.7e-05 ± 1.5e-05 s⁻¹
17 | A14G A15C | 0.0193 ± 0.0062 s⁻¹ | 0.584 ± 0.27 mM | 0.00312 ± 0.00073 s⁻¹ | 0.0155 ± 0.0029 s⁻¹ | 0.012 ± 0.0039 s⁻¹ | 0.0199 ± 0.0053 s⁻¹ | 0.00141 ± 0.00023 s⁻¹

Row | Variant | kcat [1] | KM [2] | self-cleavage kobs at 160 uM GlcN6P [3] | self-cleavage kobs at 640 uM GlcN6P [4] | self-cleavage kobs at 2500 uM GlcN6P [5] | self-cleavage kobs at 10000 uM GlcN6P [6] | self-cleavage kobs at 40 uM GlcN6P [7]
18 | C10A G51U C68G | 4.94e-05 ± 1.5e-05 s⁻¹ |  | 5.32e-05 ± 2.5e-05 s⁻¹ | 9.82e-05 ± 3.2e-05 s⁻¹ |  | 3.4e-05 ± 1.6e-05 s⁻¹ | 3.72e-05 ± 1.7e-05 s⁻¹
19 | U57A G63A | < 1e-05 s⁻¹ |  | < 1e-05 s⁻¹ |  |  | < 1e-05 s⁻¹ | 
20 | A12C A33U | 0.000132 ± 1.7e-05 s⁻¹ | 3.33 ± 1.2 mM |  |  | 6.22e-05 ± 7.4e-06 s⁻¹ | 9.81e-05 ± 6.4e-06 s⁻¹ | 
21 | C70U C71U | 0.00193 ± 0.00073 s⁻¹ | 4.15 ± 1.9 mM | 8.1e-05 ± 8.1e-06 s⁻¹ | 0.000229 ± 1.8e-05 s⁻¹ | 0.000753 ± 0.00013 s⁻¹ | 0.00146 ± 0.00021 s⁻¹ | 3.19e-05 ± 5.6e-06 s⁻¹
22 | G51A C70G | 3.48e-05 ± 7.3e-06 s⁻¹ |  |  |  |  |  | 
23 | G38U C67A | 1.4e-05 ± 1.8e-06 s⁻¹ |  |  |  |  |  | 
24 | A6U A15C | 7.81e-05 ± 1.6e-05 s⁻¹ | 4.25 ± 2 mM |  |  | 2.58e-05 ± 7.8e-06 s⁻¹ | 5.56e-05 ± 8.2e-06 s⁻¹ | < 1e-05 s⁻¹
25 | A15U A42G | 0.00684 ± 0.0019 s⁻¹ | 1.5 ± 0.57 mM | 0.000542 ± 0.00018 s⁻¹ | 0.00165 ± 0.00033 s⁻¹ | 0.0039 ± 0.0016 s⁻¹ | 0.00687 ± 0.0013 s⁻¹ | 0.000222 ± 3.2e-05 s⁻¹
26 | C11A G32U | 5.22e-05 ± 2.5e-05 s⁻¹ |  | < 1e-05 s⁻¹ |  |  |  | < 1e-05 s⁻¹
27 | U30A U47A | 0.00539 ± 0.0011 s⁻¹ | 3.15 ± 0.93 mM | 0.000206 ± 5.9e-05 s⁻¹ | 0.000968 ± 0.00012 s⁻¹ | 0.0025 ± 0.00032 s⁻¹ | 0.00373 ± 0.00086 s⁻¹ | 
28 | G38A U69G | 3.24e-05 ± 5.7e-06 s⁻¹ |  |  |  | 3.53e-05 ± 1.3e-05 s⁻¹ |  | 
29 | C61G U69A | 2.83e-05 ± 3.9e-06 s⁻¹ |  |  |  |  |  | 
30 | U55C U69G | 1.99e-05 ± 1.9e-06 s⁻¹ |  |  |  |  |  | 
31 | G32C A52U | < 1e-05 s⁻¹ |  |  |  |  |  | < 1e-05 s⁻¹
32 | A48C U56A | 0.000146 ± 3.6e-05 s⁻¹ |  |  |  | 7.8e-05 ± 1.6e-05 s⁻¹ | 0.000107 ± 1.7e-05 s⁻¹ | 
33 | U56A G66U | 0.000875 ± 6.7e-05 s⁻¹ | 2.78 ± 0.35 mM | 5.15e-05 ± 8.2e-06 s⁻¹ | 0.000164 ± 1.8e-05 s⁻¹ | 0.000378 ± 4.5e-05 s⁻¹ | 0.000712 ± 6.7e-05 s⁻¹ | 
34 | G44A A53G | 0.000575 ± 4.5e-05 s⁻¹ | 2.46 ± 0.44 mM |  | 0.000116 ± 2.3e-05 s⁻¹ | 0.000319 ± 6.7e-05 s⁻¹ | 0.000456 ± 4.8e-05 s⁻¹ | 
